Data taken from patent publication US20240279278A1, “NMU RECEPTOR 2 AGONISTS” (Boehringer Ingelheim International GmbH, priority 2023, published 2024).

T1: human neuromedin U receptor 1 (human, UniProt Q9HB89 24-426)
T1 sequence (looked up): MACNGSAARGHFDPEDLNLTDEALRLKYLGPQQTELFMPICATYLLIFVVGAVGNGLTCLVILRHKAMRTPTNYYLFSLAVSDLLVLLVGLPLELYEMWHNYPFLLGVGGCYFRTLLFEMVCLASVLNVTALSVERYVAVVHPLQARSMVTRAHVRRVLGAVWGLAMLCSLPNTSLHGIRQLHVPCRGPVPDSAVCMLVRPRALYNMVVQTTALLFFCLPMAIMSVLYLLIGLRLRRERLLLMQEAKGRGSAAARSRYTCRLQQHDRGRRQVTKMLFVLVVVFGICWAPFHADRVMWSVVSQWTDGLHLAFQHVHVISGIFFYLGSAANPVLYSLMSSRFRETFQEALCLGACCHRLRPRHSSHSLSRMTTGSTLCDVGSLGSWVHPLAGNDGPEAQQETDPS

B1: C20DA-gGlu4-Sar12-AEPipAc-Tyr-Phe-NMeLeu-Nle-Lys-NMeAla-Arg-Gly-NH2 (peptide)
peptide: EEEEXXXXXXXXXXXXXYFLXKARG
HELM: PEPTIDE1{[O=C(O)CCCCCCCCCCCCCCCCCCC(=O)[*:2]].[gGlu].[gGlu].[gGlu].[gGlu].[Sar].[Sar].[Sar].[Sar].[Sar].[Sar].[Sar].[Sar].[Sar].[Sar].[Sar].[Sar].[O=C(CN1CCN(CCN[*:1])CC1)[*:2]].Y.F.[meL].[Nle].K.[meA].R.G.[am]}$$$$V2.0
SMILES: CCCC[C@H](NC(=O)[C@H](CC(C)C)N(C)C(=O)[C@H](Cc1ccccc1)NC(=O)[C@H](Cc1ccc(O)cc1)NC(=O)CN1CCN(CCNC(=O)CN(C)C(=O)CN(C)C(=O)CN(C)C(=O)CN(C)C(=O)CN(C)C(=O)CN(C)C(=O)CN(C)C(=O)CN(C)C(=O)CN(C)C(=O)CN(C)C(=O)CN(C)C(=O)CN(C)C(=O)CC[C@H](NC(=O)CC[C@H](NC(=O)CC[C@H](NC(=O)CC[C@H](NC(=O)CCCCCCCCCCCCCCCCCCC(=O)O)C(=O)O)C(=O)O)C(=O)O)C(=O)O)CC1)C(=O)N[C@@H](CCCCN)C(=O)N(C)[C@@H](C)C(=O)N[C@@H](CCCNC(=N)N)C(=O)NCC(N)=O
B2: C20DA-gGlu4-Sar12-AEPipAc-Tyr-Phe-NMeLeu-Nle-Orn-NMeAla-Arg-Gly-NH2 (peptide)
peptide: EEEEXXXXXXXXXXXXXYFLXXARG
HELM: PEPTIDE1{[O=C(O)CCCCCCCCCCCCCCCCCCC(=O)[*:2]].[gGlu].[gGlu].[gGlu].[gGlu].[Sar].[Sar].[Sar].[Sar].[Sar].[Sar].[Sar].[Sar].[Sar].[Sar].[Sar].[Sar].[O=C(CN1CCN(CCN[*:1])CC1)[*:2]].Y.F.[meL].[Nle].[Orn].[meA].R.G.[am]}$$$$V2.0
SMILES: CCCC[C@H](NC(=O)[C@H](CC(C)C)N(C)C(=O)[C@H](Cc1ccccc1)NC(=O)[C@H](Cc1ccc(O)cc1)NC(=O)CN1CCN(CCNC(=O)CN(C)C(=O)CN(C)C(=O)CN(C)C(=O)CN(C)C(=O)CN(C)C(=O)CN(C)C(=O)CN(C)C(=O)CN(C)C(=O)CN(C)C(=O)CN(C)C(=O)CN(C)C(=O)CN(C)C(=O)CC[C@H](NC(=O)CC[C@H](NC(=O)CC[C@H](NC(=O)CC[C@H](NC(=O)CCCCCCCCCCCCCCCCCCC(=O)O)C(=O)O)C(=O)O)C(=O)O)C(=O)O)CC1)C(=O)N[C@@H](CCCN)C(=O)N(C)[C@@H](C)C(=O)N[C@@H](CCCNC(=N)N)C(=O)NCC(N)=O
B3: C20DA-gGlu4-Sar15-AEPipAc-Tyr-Phe-NMeLeu-Nle-Lys-NMeAla-Arg-Gly-NH2 (peptide)
peptide: EEEEXXXXXXXXXXXXXXXXYFLXKARG
HELM: PEPTIDE1{[O=C(O)CCCCCCCCCCCCCCCCCCC(=O)[*:2]].[gGlu].[gGlu].[gGlu].[gGlu].[Sar].[Sar].[Sar].[Sar].[Sar].[Sar].[Sar].[Sar].[Sar].[Sar].[Sar].[Sar].[Sar].[Sar].[Sar].[O=C(CN1CCN(CCN[*:1])CC1)[*:2]].Y.F.[meL].[Nle].K.[meA].R.G.[am]}$$$$V2.0
SMILES: CCCC[C@H](NC(=O)[C@H](CC(C)C)N(C)C(=O)[C@H](Cc1ccccc1)NC(=O)[C@H](Cc1ccc(O)cc1)NC(=O)CN1CCN(CCNC(=O)CN(C)C(=O)CN(C)C(=O)CN(C)C(=O)CN(C)C(=O)CN(C)C(=O)CN(C)C(=O)CN(C)C(=O)CN(C)C(=O)CN(C)C(=O)CN(C)C(=O)CN(C)C(=O)CN(C)C(=O)CN(C)C(=O)CN(C)C(=O)CN(C)C(=O)CC[C@H](NC(=O)CC[C@H](NC(=O)CC[C@H](NC(=O)CC[C@H](NC(=O)CCCCCCCCCCCCCCCCCCC(=O)O)C(=O)O)C(=O)O)C(=O)O)C(=O)O)CC1)C(=O)N[C@@H](CCCCN)C(=O)N(C)[C@@H](C)C(=O)N[C@@H](CCCNC(=N)N)C(=O)NCC(N)=O
B4: C20DA-gGlu4-Sar12-AEPipAc-Tyr-Phe-NMeLeu-Nle-Dbu-Pro-Arg-Gly-NH2 (peptide)
peptide: EEEEXXXXXXXXXXXXXYFLXXPRG
HELM: PEPTIDE1{[O=C(O)CCCCCCCCCCCCCCCCCCC(=O)[*:2]].[gGlu].[gGlu].[gGlu].[gGlu].[Sar].[Sar].[Sar].[Sar].[Sar].[Sar].[Sar].[Sar].[Sar].[Sar].[Sar].[Sar].[O=C(CN1CCN(CCN[*:1])CC1)[*:2]].Y.F.[meL].[Nle].[Dab].P.R.G.[am]}$$$$V2.0
SMILES: CCCC[C@H](NC(=O)[C@H](CC(C)C)N(C)C(=O)[C@H](Cc1ccccc1)NC(=O)[C@H](Cc1ccc(O)cc1)NC(=O)CN1CCN(CCNC(=O)CN(C)C(=O)CN(C)C(=O)CN(C)C(=O)CN(C)C(=O)CN(C)C(=O)CN(C)C(=O)CN(C)C(=O)CN(C)C(=O)CN(C)C(=O)CN(C)C(=O)CN(C)C(=O)CN(C)C(=O)CC[C@H](NC(=O)CC[C@H](NC(=O)CC[C@H](NC(=O)CC[C@H](NC(=O)CCCCCCCCCCCCCCCCCCC(=O)O)C(=O)O)C(=O)O)C(=O)O)C(=O)O)CC1)C(=O)N[C@@H](CCN)C(=O)N1CCC[C@H]1C(=O)N[C@@H](CCCNC(=N)N)C(=O)NCC(N)=O
B5: C20DA-gGlu4-Sar15-AEPipAc-Tyr-Phe-NMeLeu-Nle-Orn-NMeAla-Arg-Gly-NH2 (peptide)
peptide: EEEEXXXXXXXXXXXXXXXXYFLXXARG
HELM: PEPTIDE1{[O=C(O)CCCCCCCCCCCCCCCCCCC(=O)[*:2]].[gGlu].[gGlu].[gGlu].[gGlu].[Sar].[Sar].[Sar].[Sar].[Sar].[Sar].[Sar].[Sar].[Sar].[Sar].[Sar].[Sar].[Sar].[Sar].[Sar].[O=C(CN1CCN(CCN[*:1])CC1)[*:2]].Y.F.[meL].[Nle].[Orn].[meA].R.G.[am]}$$$$V2.0
SMILES: CCCC[C@H](NC(=O)[C@H](CC(C)C)N(C)C(=O)[C@H](Cc1ccccc1)NC(=O)[C@H](Cc1ccc(O)cc1)NC(=O)CN1CCN(CCNC(=O)CN(C)C(=O)CN(C)C(=O)CN(C)C(=O)CN(C)C(=O)CN(C)C(=O)CN(C)C(=O)CN(C)C(=O)CN(C)C(=O)CN(C)C(=O)CN(C)C(=O)CN(C)C(=O)CN(C)C(=O)CN(C)C(=O)CN(C)C(=O)CN(C)C(=O)CC[C@H](NC(=O)CC[C@H](NC(=O)CC[C@H](NC(=O)CC[C@H](NC(=O)CCCCCCCCCCCCCCCCCCC(=O)O)C(=O)O)C(=O)O)C(=O)O)C(=O)O)CC1)C(=O)N[C@@H](CCCN)C(=O)N(C)[C@@H](C)C(=O)N[C@@H](CCCNC(=N)N)C(=O)NCC(N)=O
B6: C18DA-gGlu4-Sar12-AEPipAc-Tyr-Phe-NMeLeu-Nle-Arg-Pro-Arg-Gly-NH2 (peptide)
peptide: EEEEXXXXXXXXXXXXXYFLXRPRG
HELM: PEPTIDE1{[O=C(O)CCCCCCCCCCCCCCCCC(=O)[*:2]].[gGlu].[gGlu].[gGlu].[gGlu].[Sar].[Sar].[Sar].[Sar].[Sar].[Sar].[Sar].[Sar].[Sar].[Sar].[Sar].[Sar].[O=C(CN1CCN(CCN[*:1])CC1)[*:2]].Y.F.[meL].[Nle].R.P.R.G.[am]}$$$$V2.0
SMILES: CCCC[C@H](NC(=O)[C@H](CC(C)C)N(C)C(=O)[C@H](Cc1ccccc1)NC(=O)[C@H](Cc1ccc(O)cc1)NC(=O)CN1CCN(CCNC(=O)CN(C)C(=O)CN(C)C(=O)CN(C)C(=O)CN(C)C(=O)CN(C)C(=O)CN(C)C(=O)CN(C)C(=O)CN(C)C(=O)CN(C)C(=O)CN(C)C(=O)CN(C)C(=O)CN(C)C(=O)CC[C@H](NC(=O)CC[C@H](NC(=O)CC[C@H](NC(=O)CC[C@H](NC(=O)CCCCCCCCCCCCCCCCC(=O)O)C(=O)O)C(=O)O)C(=O)O)C(=O)O)CC1)C(=O)N[C@@H](CCCNC(=N)N)C(=O)N1CCC[C@H]1C(=O)N[C@@H](CCCNC(=N)N)C(=O)NCC(N)=O
B7: C20DA-gGlu4-Sar15-AEPipAc-Tyr-Phe-NMeLeu-Nle-Lys-Pro-Arg-Gly-NH2 (peptide)
peptide: EEEEXXXXXXXXXXXXXXXXYFLXKPRG
HELM: PEPTIDE1{[O=C(O)CCCCCCCCCCCCCCCCCCC(=O)[*:2]].[gGlu].[gGlu].[gGlu].[gGlu].[Sar].[Sar].[Sar].[Sar].[Sar].[Sar].[Sar].[Sar].[Sar].[Sar].[Sar].[Sar].[Sar].[Sar].[Sar].[O=C(CN1CCN(CCN[*:1])CC1)[*:2]].Y.F.[meL].[Nle].K.P.R.G.[am]}$$$$V2.0
SMILES: CCCC[C@H](NC(=O)[C@H](CC(C)C)N(C)C(=O)[C@H](Cc1ccccc1)NC(=O)[C@H](Cc1ccc(O)cc1)NC(=O)CN1CCN(CCNC(=O)CN(C)C(=O)CN(C)C(=O)CN(C)C(=O)CN(C)C(=O)CN(C)C(=O)CN(C)C(=O)CN(C)C(=O)CN(C)C(=O)CN(C)C(=O)CN(C)C(=O)CN(C)C(=O)CN(C)C(=O)CN(C)C(=O)CN(C)C(=O)CN(C)C(=O)CC[C@H](NC(=O)CC[C@H](NC(=O)CC[C@H](NC(=O)CC[C@H](NC(=O)CCCCCCCCCCCCCCCCCCC(=O)O)C(=O)O)C(=O)O)C(=O)O)C(=O)O)CC1)C(=O)N[C@@H](CCCCN)C(=O)N1CCC[C@H]1C(=O)N[C@@H](CCCNC(=N)N)C(=O)NCC(N)=O
B8: C20DA-gGlu4-Sar15-AEPipAc-Tyr-Phe-NMeLeu-Nle-Dbu-NMeAla-Arg-Gly-NH2 (peptide)
peptide: EEEEXXXXXXXXXXXXXXXXYFLXXARG
HELM: PEPTIDE1{[O=C(O)CCCCCCCCCCCCCCCCCCC(=O)[*:2]].[gGlu].[gGlu].[gGlu].[gGlu].[Sar].[Sar].[Sar].[Sar].[Sar].[Sar].[Sar].[Sar].[Sar].[Sar].[Sar].[Sar].[Sar].[Sar].[Sar].[O=C(CN1CCN(CCN[*:1])CC1)[*:2]].Y.F.[meL].[Nle].[Dab].[meA].R.G.[am]}$$$$V2.0
SMILES: CCCC[C@H](NC(=O)[C@H](CC(C)C)N(C)C(=O)[C@H](Cc1ccccc1)NC(=O)[C@H](Cc1ccc(O)cc1)NC(=O)CN1CCN(CCNC(=O)CN(C)C(=O)CN(C)C(=O)CN(C)C(=O)CN(C)C(=O)CN(C)C(=O)CN(C)C(=O)CN(C)C(=O)CN(C)C(=O)CN(C)C(=O)CN(C)C(=O)CN(C)C(=O)CN(C)C(=O)CN(C)C(=O)CN(C)C(=O)CN(C)C(=O)CC[C@H](NC(=O)CC[C@H](NC(=O)CC[C@H](NC(=O)CC[C@H](NC(=O)CCCCCCCCCCCCCCCCCCC(=O)O)C(=O)O)C(=O)O)C(=O)O)C(=O)O)CC1)C(=O)N[C@@H](CCN)C(=O)N(C)[C@@H](C)C(=O)N[C@@H](CCCNC(=N)N)C(=O)NCC(N)=O

Target: T1, human neuromedin U receptor 1
Assay: cell-based or functional assay

B1 and B2 are within 1.5-fold of each other in “EC50 (hNMUR1) buffer” value: 1400 nM for the first, 1200 nM for the second.

Compared with B3, B4 is lower in “EC50 (hNMUR1) buffer” value: over 1000 nM for the first, 860 nM for the second.

First: B5
Second: B6
The “EC50 (hNMUR1) buffer” value of the first is 6.4-fold higher: 1400 nM for the first, 220 nM for the second.

Going from B7 to B8, the “EC50 (hNMUR1) buffer” value rises from 610 nM to over 1000 nM.
